Experiments:
[1] = target: T1, PD-1 expressed on the cell surface (human, UniProt Q15116 21-288); test: cell-based competition (FACS): blocked ligand PD-L1-PE binding to NSO-PD-1 cells, MFI
T1 construct: also called NSO cells expressing PD-1; NSO-PD-1 cells

[2] = target: T2, hPD-1-His (human, UniProt Q15116 25-170, limits assumed); test: competition ELISA: plate coated with shPD-1 and irrelevant antigen 1:1 (2 ug/ml each); blocked ligand biotin-labeled PD-L1 6 ug/ml, streptavidin-HRP, RLU
T2 construct: also called His-tagged soluble human PD-1; shPD-1
Method: (§1) A series of ELISA assays were conducted to evaluate the ability of bispecific molecules of the invention to block ligand binding to PD-1 and […], alone and in combination. […] Plates were coated with a 1:1 mix of His-tagged soluble human PD-1 (shPD-1) and a His-tagged irrelevant antigen (irrAg) (2 μg/ml each), or a 1:1 mix of shPD-1 and a His-tagged soluble human CTLA-4 (shCTLA-4) (2 μg/ml each).

[3] = target: T2, hPD-1-His; test: competition ELISA: plate coated with shPD-1 and shCTLA-4 1:1 (2 ug/ml each); blocked ligand biotin-labeled PD-L1 6 ug/ml, streptavidin-HRP, RLU
Method: as §1

[4] = target: T2, hPD-1-His; test: ELISA, hPD-1-His (1 ug/mL) coated, goat anti-human-Fc-HRP detection
Text: FIGS. 8A-8D show the results of ELISA studies measuring the binding of serially diluted binding molecules to human CTLA-4 and human PD-1. […] Goat anti-human-Fc-HRP (1:10,000) was employed as the secondary detection molecule to detect binding. FIGS. 8C-8D show the results of a study on the effect of altering orientations and binding domains on binding. […] Goat anti-human-Fcγ-HRP was employed as the secondary detection molecule to detect binding using PICO chemiluminescent substrate.
Goat anti-human-Fc-HRP (1:10,000) was employed as the secondary detection molecule to detect binding.

[5] = target: T2, hPD-1-His; test: BIACORE, binder captured on F(ab)2 goat anti-human Fc, His-tagged soluble human PD-1 passed over at 6.25-100 nM; Langmuir 1:1 fit
[6] = target: T3, human CTLA-4 expressed on the cell surface (human, UniProt P16410 36-223); test: flow cytometry (FACS) on Jurkat cells expressing huCTLA-4 but not PD-1, anti-human Fc secondary antibody, MFI
T3 construct: also called huCTLA-4; CHO cells expressing human CTLA-4
T3 sequence: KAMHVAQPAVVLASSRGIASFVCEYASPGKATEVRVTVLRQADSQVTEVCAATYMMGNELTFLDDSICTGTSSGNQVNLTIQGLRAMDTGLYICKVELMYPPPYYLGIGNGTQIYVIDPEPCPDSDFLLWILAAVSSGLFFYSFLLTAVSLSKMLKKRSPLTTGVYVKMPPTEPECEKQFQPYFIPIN
Text: Binding of the DART and TRIDENT molecules to human CTLA-4 was detected using anti-human FC secondary Ab (FACS).

[7] = target: T1, PD-1 expressed on the cell surface; test: cell-based competition (FACS): blocked ligand PD-L2-PE binding to NSO-PD-1 cells, MFI

B1: PD-1 mAb 6 G4P (antibody, human IgG4 S228P, kappa, V domains shown)
VH: QVQLVQSGAEVKKPGASVKVSCKASGYSFTSYWMNWVRQAPGQGLEWIGVIHPSDSETWLDQKFKDRVTITVDKSTSTAYMELSSLRSEDTAVYYCAREHYGTSPFAYWGQGTLVTVSS
VL: EIVLTQSPATLSLSPGERATLSCRASESVDNYGMSFMNWFQQKPGQPPKLLIHAASNQGSGVPSRFSGSGSGTDFTLTISSLEPEDFAVYFCQQSKEVPYTFGGGTKVEIKR
notes: IgG4 with stabilized hinge, kappa; VH/VL of PD-1 mAb 6-ISQ; also called the PD-1 antibody; parental anti-PD-1 antibody
With B1 the “IC50 (read off the curve)” value [1] was about 0.5 nM, the “IC50 (read off the curve)” value [2] was about 0.8 nM and the “IC50 (read off the curve)” value [3] was about 0.7 nM. The EC50 [4] was 0.3 nM, the Kd [5] was 1.1 nM and the binding result [6] was “no binding (tested: about 100 nM)”. For the same binder, the “IC50 (read off the curve)” value [7] was about 0.5 nM.

Source: patent publication US20210130470A1 (MacroGenics, published 2021)
